Measured values taken from US20120207760A1 (THERACLONE SCIENCES, published 2012).

B1: TCN-523 (5248_A17) (antibody, V domains shown)
VH: QVQLVQSGAEVKKPGSSVKVSCKASGGSFSNYAFSWVRQAPGQGLEWMGGTIPLLGTTNYAQKFQGRVTISADQFTSTAYMELGSLRSEDTAVYYCTRRKMTTAFDSWGQGTLVTVSS
VL: QPVLTQPPSASASLGASVTLTCTLSSAYSNYKVDWYQQRPGKGPRFVMRVGTGGIVGSKGDGIPDRFSVLGSGLNRYLTIKNIQEEDESDYHCGADHGSGSNFVSPYVFGGGTKLTVL
B2: TCN-563 (5237_B21) (antibody, V domains shown)
VH: QVQLAQSGAEVKRPGSSVKVSCTASGGIFRKNAISWVRQAPGQGLEWMGGIIAVFNTANYAQKFQGRVKITADESGNTAYMELSSLRSDDTAVYYCASHPKYFYGSGSYPDFWGQGTLVTVSS
VL: QSALTQPRSVSGSPGQSVTISCTGSSSDVGASNSVSWYQQHPGKAPKLVIYDVTERPSGVPHRFSGSKSGNTASLTVSGLQPEDEADYFCCAYGGKYLVVFGGGTKVTVL
B3: TCN-548 (5092_P01) (antibody, V domains shown)
VH: QVQLQESGPGLVKPSETLSLTCTVSSGPMSDYYWSWIRQPPGKGLEWIGHVSVSHGGRTKSNPSVMSRVTISVETSKNQFSLKLTSVTAADTAVYYCARLNYYDRSGYHSPDGPSNNWFDPWGQGTLVTVSS
VL: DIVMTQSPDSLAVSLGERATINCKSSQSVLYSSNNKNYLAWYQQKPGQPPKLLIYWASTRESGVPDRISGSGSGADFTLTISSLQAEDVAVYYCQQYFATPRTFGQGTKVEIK
B4: TCN-542 (5079_A16) (antibody, V domains shown)
VH: QVQLQESGPGLVKPSQTLSLTCTVSGGSISSGNYYWNWVRQHPGKGLEWIGYIYYRGSTFYNPSLKSRVTISIDTSKNQFSLRLSSVTAADTAVYYCAKDTRSSLDNYQYGMDVWGQGTTVTVSS
VL: QTVVTQEPSLTVSPGGTVTLTCASSTGAVTSSYFPNWFQQKPGQAPRPLIYSTTIRHSWTPARFSGSLLGGKAALTLSGVQPEDEADYYCLLYSGGDPVAFGGGTKLTVL
B5: TCN-543 (5081_G23) (antibody, V domains shown)
VH: QVHLVQSGAEVRKPGDSVKVSCKTSGYTFSTYPVAWVRQVPGQGLEWMGWISTYNGNTNFAQNFQGRVTLTTDTTTNTAYMEVRSLKFDDTAVYYCARVEGSYRDFWNNQNRFDPWGQGTLVTVSS
VL: SYVLTQPPSVSVAPGQTARISCGGSNIGGKSVHWYQQKPGQAPVLVVYDDSGRPSGIPERFSGSNSGDTATLTISRVEAGDEADYFCQVWDNFGGVFGTGTKVTVL
B6: TCN-527 (5086_C06) (antibody, V domains shown)
VH: QVQLQESGPGLVKPSETLSLNCAVSGGSISNYYWSWIRQPPGKGLEWIGYISYNGRPKYNPSLTSRVTISVDTSKDQFSLELRSVTAADTALYYCARETRFGELLSPYDAFEIWGQGTMVTVSS
VL: DIQMTQSPSSLSASVGDRVTMTCRASQNIRSYLNWYQQRPGTAPKLLIYAASTLHSGVPSRFSGGGSGTDFTLTINNLQPEDFASYYCQQSYDNPQTFGQGTKVEIK
B7: TCN-540 (5060_F05) (antibody, V domains shown)
VH: QVQLVQSGGGVVQPGRSLRLSCAASGFTFSSYAMHWVRQAPGKGLEWVAIISYDGNDQYYTDSVKGRFTISRDSSKVYLQMHRLRPEDTAVYYCAKEFETSGYFHGSFDYWGQGILVTVSS
VL: QSALTQPASVSGSPGQSITISCTGTSSDVGGYNYVSWYQQHPGKAPKLLIYEVTNWPSGVSNRFSGSKSGNTASLTISGLQAEDEADYYCSSYAGSSTWVFGGGTRVTVL
B8: TCN-539 (5056_A08) (antibody, V domains shown)
VH: QVQLVESGGGVVQPGRSLRLSCAASEITFITYAMHWVRQAPGKGLEWVALISDDGSNKFYADSVKGRFTISRDNSKNTLYLQMNSLRAEDTAAYYCAREGVYFDSGTYRGYFDYWGQETLVTVSS
VL: EIVLTQSPATLSLSPGERATLSCRASQSVSSYLAWYQQKPGQAPRLLIYDASNRATGIPARFSGSGSGTDFTLTISSLEPEDFAVYYCQQRSHWPPITFGQGTRLEIK
B9: TCN-546 (5089_L08) (antibody, V domains shown)
VH: QVQLQQWGAGLLKPSETLSLTCGVYGGSLSDYYWSWIRQPPGKGLEWIGEINHSGGTNYNPSLKRRVTISVDTSKKQFSLKMNSVTAADTAVYYCARGTDPDTEVYCRAGNCAAFDFWGQGTLVTVSS
VL: EIVLTQSPGTLSLSPGERATLSCRASHFVIGRAVAWYQQKPGQAPRLLIYGASSRATGIPDRFSGSGSGTDFTLTISRLETEDFAVFYCQHYGSSPRYAFGQGTKLEIK
B10: TCN-533 (5256_A17) (antibody, V domains shown)
VH: QVQLVQSGADVKKPGSSVTVSCKASGGSFSNYGINWVRQAPGQGLEWMGGIIPLINAPNYAPKFQGRVTITADMFSNIVSLQLTSLRTDDTAVYYCARRKMTTAIDYWGQGTLVTVSS
VL: QPVLSQPPSASASLGASVTLTCTLSSGFDNYQVAWYQQRPGKGPRFVMRVGNGGNVASKGDGIPDRFSVSGSGLNRYLTIKNIQEDDESDYYCGADHGSGNNFVSPYVFGGGTKLTVL
B11: TCN-544 (5082_A19) (antibody, V domains shown)
VH: QVQLQESGPGLVKPSETLSLTCTVSRGSIGHYFWSWIRQPPGKGLEWIGYISYSGSTKYNPSLRSRVTISVDTSKNQFSLNLNSVTATDTALYYCAREDYDILTGAGPGMEVWGQGTTVTVSS
VL: QSMLTQPPSASGTPGQRVTISCSGSSSNIGSNTVNWFKHLPGTAPKLLIYRNDLRPSGVPDRFSGSKSGTSASLAISGLQSEDEADYYCATWDDSLNGFYVFGTGTKVTVL
B12: TCN-536 (5095_N01) (antibody, V domains shown)
VH: QVQLQQWGAGLLKPSETLSLTCAVYGGSFSVSGYYWSWIRQPPGRGLEWIGEISHGGSTNYNPSLKSRVTISVDTTKNQFSLRLSSVTAADTAVYYCARGTDPDTEVYCRVGNCAAFDYWGQGSLVTVSS
VL: EIILAQSPGTLSLSPGERATLSCRASQFVSTRSLAWYQQRPGQAPRLLIYGASSRATGIPDRFSGSGSGTDFTLTISRLEPEDFAVYYCQHYGYSPRYAFGQGSKVEIK
B13: TCN-530 (5248_H10a) (antibody, V domains shown)
VH: QVQLVQSGAEVRKPGSSVKVSCKASGGPFMSYAIGWVRQAPGQGLEWMGGINPVFGRPHYAQKFQGRVTIATDDSTKTSYMELSSLTSEDTGMYYCASRYSRSSPGTFESWGQGTLVTVSS
VL: EIVMTQFPATLSVSPGERVTLSCRASQSVSNNLAWYQQKPGQPPRLLIYDASTRATGVPAKFSGTGSGTEFTLSISSLQSEDFAVYYCQQYHNWPPSYSFGLGTKLEIK
B14: TCN-532 (5262_H18) (antibody, V domains shown)
VH: QVQLQESGPGLVKPSETLSLTCTVSGGSVSSETYYWSWIRQPPGKGLEWIGYIYYIGNTDYRPSLKSRVTISLDTSKNQFSLKLSSVTAADTAVYYCARGAYYDSSGYPAFYIWGQGTMVTVSS
VL: QSVLTQPPSVSGAPGQRVTISCTGSSSNIGSDYDVHWYKQLPGTAPKLLIFGNSNRPSGVPDRFSGSKSGTSASLAITGLQAEDEADYYCQSYDSSLSGFHVFGSGTKVTVL
B15: TCN-545 (5082_I15) (antibody, V domains shown)
VH: QVQLQQWGAGLLKPSETLSLSCAVFGGSFSDYYWTWIRQPPGKGLEWIGEIKHSGRTNYNPSLESRVTISVDTSKNQFSLKLSSVTAADTAIYYCARGTDPDTEGYCRSGSCSAFDFWGQGTLVTVSS
VL: EIVLTQSPGTLSLSPGERATLSCRASHFVNYRSLAWYQQTPGQVPRLLIYGASTRATGIPDRFSGSGSGTDFTLTISRLEPEDFAVYFCQQYGGSPRYTFGQGTRLEIK
B16: TCN-526 (5084_C17) (antibody, V domains shown)
VH: EVLMVESGGGLVQPGGSVRLSCVASGFSFSSHWMTWVRQAPGKGLEWVANIEDDGGDKYYVDSVKGRFIISRDNAKNSVYLQMNSLRAEDTAVYFCARGSGSSDRSDYDPHYYYYLDVWGKGATVTVSS
VL: DIQLTQSPSSLSASVGDRVTITCRASQSISRYLNWYQQKPGKAPKLLLFAASTLLDGVPSRFSGSGSGTDFTLTISSLQPEDFATYYCQRNHSPSWTFGQGTRVEIK
B17: TCN-534 (5249_B02) (antibody, V domains shown)
VH: QVQLVQSGAEVKKPGSSVKVSCRESGGTFNGYTITWVRQAPGQGLEWMGGIIPMMGTVNYAQKLQGRVTITTDYFTKTAYMDLNNLRSEDTAMYYCVKIRYTGQQLLWGQGTLVTVSS
VL: DIQMTQSPSTLSASIGDRVTITCRASQSIASWLAWYQQKPGKAPKLLIYEAVNLESGVPSRFSGSGSGTDFTLTISSLQPDDFATYFCQHYGTISQTFGGGTKVEIK
B18: TCN-531 (5091_H13) (antibody, V domains shown)
VH: EVQLVESGGDLVQPGRSLKLSCTGSGFTFGDYGVTWVRQAPGKGLEWVGFIRTRPWGGTADTAASVKGRFTISRDDSKSLAYLQMNSLKTEDTAVYYCCRDAPPNVEVASMTNWYFDLWGRGTLVTVSS
VL: DIQLTQSPSSLSASVGDRVTITCRASQGILNCLAWYQQKPGKVPNLLMYAASTLQSGVPSRFSGSGFGTDFTLTISSLQPEDVATYYCQTYGGVSTFGGGTKVEIR
B19: TCN-521 (3280_D18) (antibody, V domains shown)
VH: EVQLVQSGGGLVQPGGSLRLACVVSGFTVTSNYITWVRQAPGKGLEWVSVIYSHGRAYYSASVNGRFTISRHTSKNTVYLEMNSLRPEDTAVYYCAGGGLVGGYDEYFFDYWGQGTLATVSS
VL: ETVLTQSPGTLSLTPGERATLSCRVGQSVSGSHLAWYQQKPGQAPRLLIYGASSRATGIPDRFGGSVSGTDFTLTISRLEPEDSAVYYCQQYGDSRYTFGQGTKLEIK
B20: TCN-528 (5087_P17) (antibody, V domains shown)
VH: QVQLVQSGSEVKKPGASVKVSCKASGYTFTNYDINWIRQAPGQGLEWMGWINPNSGTTGSAQRFQGRVTITVDTSITTVYMELSSLRSDDTAIYYCARGRELLRLQHFLTDSQSERRDCFDPWGQGTLVTVSS
VL: DIQMTQSPSSLSASVGDRVTITCRANQDIGIYLNWYQQNPGKVPKLLLHGASSLQGGVPSRFSASGSGTDFTLTIHSLQPEDLATYYCQQSRRLPYTFGQGTRVELK
B21: TCN-547 (5092_F11) (antibody, V domains shown)
VH: QVQLQESGPGLVKPSQTLSLTCTVSGDSISSVDHYWSWIRQHPVKGLEWIGFMYYSASTYYNPSLKSRVTISTDTSKNQFSLRLSSVTAADTAVYYCARGTCAGDCSLHYYYYGLDVWGQGRTVTVSS
VL: DIQMTQSPSSLSASVGDRVTITCRASQSISSYLNWYQHKPGKAPKVLMYAVSILQSGVPSRFSGSGSGADFTLTISSLQPEDFATYYCQQSYSSPLTFGGGTKVEIK
B22: TCN-535 (5246_P19) (antibody, V domains shown)
VH: QVQLVQSGSEVKKPGTSVKVSCTASGSVFTNYGISWVRQAPGQGLEWMGGIIPLFGAAKYAQKFQGRVTITADESTKTVYMELSRLTSKDTAIYFCAKAPRVYEYYFDQWGQGTPVTVSS
VL: EIVLTQSPGTLSLSPGERATLSCRASQSVSSSQLAWYQQKPGQAPRLIIYGASTRATGIPDRFSGSGSGTDFTLTIGRLEPEDFAVFFCQQYSTSPPTFGQGTKVDFK

target: Hemagglutinin of influenza A/Japan/305/57 (H2N2), on inactivated whole virions (Influenza A virus A/Japan/305/1957 …, UniProt P03451 16-562); assay: ELISA, B cell culture supernatant on inactivated whole virions

Binder	OD450
B1	1.62 OD450
B2	1.23 OD450
B3	0.09 OD450
B4	0.08 OD450
B5	3.62 OD450
B6	1.48 OD450
B7	3.62 OD450
B8	0.06 OD450
B9	0.06 OD450
B10	1.1 OD450
B11	0.07 OD450
B12	0.08 OD450
B13	1.73 OD450
B14	0.07 OD450
B15	0.06 OD450
B16	0.07 OD450
B17	2.56 OD450
B18	0.67 OD450
B19	3.1 OD450
B20	2.82 OD450
B21	0.07 OD450
B22	1.46 OD450
